Assay: soluble fraction after stress (log2 fold change); higher = more stays soluble; pooled small domains, quantitative proteomics
Conditions: stress: 75 degC
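Note: 20 min heating vs room temperature control held 20 min.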

Row | Sequence | soluble fraction (log2)
1 | HMNTISEADAKRIALERAGLTAADYVKVDYDQDDNEYEVEMRSGNTEYEVKISGSTGAVLEYDSETD | -0.358
2 | HMVLTGTIKKYNNERGFGFISTSNFGDVFFHIKDFQKGEQPIPGREVYFEVVKKENKKRAIHVYYSD | -1.95
3 | HMNSKSDDELLSKTTSLLIHAAKIDENYTDKEKEIIKKTLIQLGVKESKADQIMLTAEINEE | ≥ 1.04
4 | HMTSRLLTPRQRYVFDTAMKEGFYDVPRRITLTELASVLDVAKSTLSAQLHRIESTVHHAYADDIRRRS | -2.55
5 | HMKHYMKITDISLQTRDKNRVNVSVDGKYRFSLDVFQVGELGLKVGREYTDEELTALEDESQFG | -1.11
6 | HMAVKPIDRLRSLMAESNVTDAELQKVVADKGHYAADAPIDSYSEKFISGWLIKYWSQILNLINADRTVL | -0.691
7 | HMLNNVDIHKLSEDLLLYKIKIDIKLKNIEDAISTIDYFSNKFPNSDLMPYVIYEKKLIDNI | -2.59
8 | HMVSLRQQVYDYLRSQMNQGELRPGSAINLGEMSSRFGISRTPLREALLQLETEGFVTIYPRKGIIVN | -1.63
9 | HMLNWINSDVLERFNSLTKEKQKAIVADTETRLNGLSQARFKVAKSSSNERLIAEFAIEINEAIMRAAAL | -2.11
10 | HMAEPIEKIIIEGNQRIEALTIQSYLLLRVGEPFNRQLMNQTLKSLYATGYFSDVAVTRVSSSLLVK | 0.153
11 | HMSTEEYDRGYEQGLEEAAKADDAWVANLIKIYSQNTPESMPETMKGRLDAFLYEQQRRAQSVPEM | 0.918
12 | HMSAEVEVPDVVGRQVALAVQLIETKKLRVNVAETYDAKVPPGQVISQSPEAGMKVKEERVITIYVSR | -1.36
13 | HMDPVQLEVIKKLNLLNAQKPKDIYALRDVLSEMFPQSDIRLLLKELLDKGYIYWNGHEVIYSHEMF | -0.272
14 | HMGKLQFREKLNGILELGKEKHRVLTMEDVEKYFEEDALSEEQMELVYDYLLSQKIAVTGYVKK | -0.509
15 | HMGIIYGKNPVLEAISSGTTINKIYAQTSNKEIDSVIKEALKRKIIVVNTDKQKLDKMIDGKNSQGIIASI | 0.025
16 | HMQPKKLNMYYDYVRQLLESHPYLSAAQIEDRLKEEFTELPMVHSKTVFNFVENIRLQHGINKHA | -0.219
17 | HMSMDYYNILGVNRNASTGEIKKAYKRASMQHHPDRGGNSDEFIKVQQAYDTLSDNHKRQAYDNP | -0.0907
18 | HMPRSLGADLRAIRKGRRLTLTDMAEALDRSVGWVSQVERDISTPSISDLRRMAEILDVPVSLLFG | -3.17
19 | HMNVKVYATIDGDNFKVSGLKPGSNVRVYSSNGSAVFEKKAGDSEMIIPAGAWTKGIYVISADDQSIKVT | -0.0855
20 | HMPREVKLPPDLLDALEASPEAKAFFLQLSYTHQKEYAQWIEEAKQEATRQRRLEKTVQMLLEGRRT | -1.27
21 | HMQENVIIYPNPTKSVIYLSEKVEFILYNILGEIIFIGDNNKIDLNSFDNGVYIFESGNVRTQIIK | 0.0395
22 | HMVRDPYELLEVPREATPDEIKSAFRKLAARHHPDRNPDDPGAQERFKEINAAYQLLSDPQKRAMFDRFGA | 0.159
23 | HMAPFSGVEPREWDSLVERGRQSGEVHAEDVTHVLRHVELTGDVLTDVQSKMAEHGITIDDA | 0.161
24 | HMNTIIIDILPKGLSIAGNQTEPKSLIQQLLMARRADPAQPILLRPAIAVPVQNVVELIDRLTAAGI | -0.306
25 | HMASEKSEQLYQQMKLDIAGMPPDTRLPSIRALMRSYSVSQLLIDRTLGRLREEGALRKRFDGLYTYL | -2.42
26 | HMPSLSPDETVVVDALRQQNDMQINMISVKTNLPIARLSAILFEMELKGVLKPLAGGVYHLL | -2.3
27 | HMAHRYQQIADDLGRRVEAGEFAAGRLLPSEATLSGQYKASRVTVRKALEALRTDGLVESRQGFGWFVAAD | -0.405
28 | HMNLRLKEVLDEKNMSLVTLSEKTGIEKGNLSAISNNKKNPTVETLSKIAKALQISLAELFESPP | 0.416

Row | Sequence | soluble fraction (log2)
29 | HMVENATPEEREALNDIAMEAMGMVKDGKPTSAREFVQSQNLDNDQKILLWSLLDAPTRSALKTAEK | 0.373
30 | HMSSVVVARTWTDTTGDFKVEAELLGVEGGLVRLKKEDGTVLSVPIAKLSTADRTFLQENQP | 0.00842
31 | HMNLSNVVIRKVQEMILSGELQEGDKLPPEREMTQRLGIGRPALREGLKSLEMLGLVERRHGLGNFIINKV | -1.05
32 | HMQELGVISEGKYNIELNMVSWNDREPKYDIRSWAPDHSRMGKGISLTEEEMERLVELWNTRNE | -0.441
33 | HMEARNDWAQQSRADAEFGGEKLDENLAVAKKAVEALASPELKTLLEQSGLGNHPEIIRLFYRAGRSLS | 0.0741
34 | HMEDPLAAQWKQGRKLFHDDYGYGIISKAFTAGDELVIMVQFENGGEKRFLPKYQAHNLLLVEQ | -1.33
35 | HMSMEQAKAEEIEKLGDNAPERLQAAALFAEKFFPQDVMDAVYKITETADGVRAIEHIMQTVK | -1.11
36 | HMGTFIATVEANSLDIYKSMSSNETIGKANKGEVFQILEDMGSGYARVSYNDVEGYLSIRDGDATIEE | 0.0208
37 | HMDRTLTYTVSIEESDLRADQFLSRRGFSSHLLTRLRKNMEHLLINGTPSRTNTHLHEGDILTVHIVEE | -2.19
38 | HMDTGPSFATRRQEAFNALTQIAASNKEFMNVAGDVLWKVADFPEAQILAQRWRRIIPPNVLGEA | -0.465
39 | HMTLFDESGYTARELEIIREVANGLSNKEIADKLFLSEGTVKNYITGILAKENLSHRTALAVYYLTGRK | -1.83
40 | HMSSSTFVGRVAVITIGEARQNSPAEARFKDRHGTTHYVMVEPMEDVVFKQGDKVLLVESAGATFKVIEPA | -1.58
41 | HMEAQFIDINDVRIGTYVYVDLGWIKHPFALNSFKITSRDQIDTLIKLGVKRIRWSPEKSDS | -3.18
42 | HMEGFKSVYFLTTPSGAEISDRSVGDIISKTPSLVSAQEGTEFEFNLKGYQPSFYMINKRSPDRVFVELIP | -0.545
43 | HMKEIIFRGIGEFILDYKSLVIEFLNKNNYANLSMDAPVDEVNKAVANNMLNEDFVTELLLFQRRVE | -4.14
44 | HMQIVPVDYSTFMQSIDDKTVDHVEIQSNQILYTVKDDHKKYKTGIMNDPTLAQRLMESGATFTQD | 0.12
45 | HMSMISLPNFVGKDIETVKAWAKENGITLIINKVEDSAKKDTVISQNPTNSDYSKILKGSAFTVNIAKE | 0.0389
46 | HMDAINITTYKGQITLTGTKTGTLVGIYNTAGMLVKSMMSKGEKLYFDNLPSGVYIIKVGEEEPRKVQVI | -2.16
47 | HMIDAHTALLAKRLEAKGMLPLTDKSSAEEIYAEFGISKKAFKKALGALYKERLVRIGEDGVVWI | -1.8
48 | HMQLGQMIVKLRKEQGLTQETFAKKFNVTRQTVSNWENEKSYPDLHTLVKISDEFHLSLDILLK | -3.14
49 | HMSNAIDDAVEKVISENLDLAKERGLQSMGPLMGLVMKELGGTADGKAVSEALRRKISEISD | 0.413
50 | HMKMNRELNQRQIKMLDYLSVNPKTTRKQYTKMMGISFMTSYRDIQELIDKAYIISKGQGRGTYYILAN | -0.709
51 | HMNEDYFTIAGYASLRGVNIDTSKANMLGRKATKLSREYGYDIGKVTDTRFGKVNSYHLDILKSIFEF | -0.575
52 | HMRSREGVRWIIRERIMEELQERHHMDDGELLEMIDRSIGEMGQEIFLPLKERIWLRGSLFDSFR | -3.07
53 | HMKNVENIILEQLKKNIYDDLNNASFEEIILIDAEKSIYKGTIKANYIEYNFKINLSTGEILKWKLK | -1.95
54 | HMDKQGGWLTMAEAAEKLGVTHHVIRRLIKEKILPAEQVMRHAPHQIRIVDLESDAVAEALRHR | -0.356
55 | HMKEEDYEVFMRLINVRGIGPKSALNILGVISGQEMIQAIENDDIKRLKSLPGIGAKTAGQIVLDLKGKFV | -0.746

— the domain aggregation screens of Martell et al. (2025)
